In IntAct's records for PubMed 28258151:

biological target: cfah_human CFH (UniProt P08603)
Sequence (P08603 whole entry): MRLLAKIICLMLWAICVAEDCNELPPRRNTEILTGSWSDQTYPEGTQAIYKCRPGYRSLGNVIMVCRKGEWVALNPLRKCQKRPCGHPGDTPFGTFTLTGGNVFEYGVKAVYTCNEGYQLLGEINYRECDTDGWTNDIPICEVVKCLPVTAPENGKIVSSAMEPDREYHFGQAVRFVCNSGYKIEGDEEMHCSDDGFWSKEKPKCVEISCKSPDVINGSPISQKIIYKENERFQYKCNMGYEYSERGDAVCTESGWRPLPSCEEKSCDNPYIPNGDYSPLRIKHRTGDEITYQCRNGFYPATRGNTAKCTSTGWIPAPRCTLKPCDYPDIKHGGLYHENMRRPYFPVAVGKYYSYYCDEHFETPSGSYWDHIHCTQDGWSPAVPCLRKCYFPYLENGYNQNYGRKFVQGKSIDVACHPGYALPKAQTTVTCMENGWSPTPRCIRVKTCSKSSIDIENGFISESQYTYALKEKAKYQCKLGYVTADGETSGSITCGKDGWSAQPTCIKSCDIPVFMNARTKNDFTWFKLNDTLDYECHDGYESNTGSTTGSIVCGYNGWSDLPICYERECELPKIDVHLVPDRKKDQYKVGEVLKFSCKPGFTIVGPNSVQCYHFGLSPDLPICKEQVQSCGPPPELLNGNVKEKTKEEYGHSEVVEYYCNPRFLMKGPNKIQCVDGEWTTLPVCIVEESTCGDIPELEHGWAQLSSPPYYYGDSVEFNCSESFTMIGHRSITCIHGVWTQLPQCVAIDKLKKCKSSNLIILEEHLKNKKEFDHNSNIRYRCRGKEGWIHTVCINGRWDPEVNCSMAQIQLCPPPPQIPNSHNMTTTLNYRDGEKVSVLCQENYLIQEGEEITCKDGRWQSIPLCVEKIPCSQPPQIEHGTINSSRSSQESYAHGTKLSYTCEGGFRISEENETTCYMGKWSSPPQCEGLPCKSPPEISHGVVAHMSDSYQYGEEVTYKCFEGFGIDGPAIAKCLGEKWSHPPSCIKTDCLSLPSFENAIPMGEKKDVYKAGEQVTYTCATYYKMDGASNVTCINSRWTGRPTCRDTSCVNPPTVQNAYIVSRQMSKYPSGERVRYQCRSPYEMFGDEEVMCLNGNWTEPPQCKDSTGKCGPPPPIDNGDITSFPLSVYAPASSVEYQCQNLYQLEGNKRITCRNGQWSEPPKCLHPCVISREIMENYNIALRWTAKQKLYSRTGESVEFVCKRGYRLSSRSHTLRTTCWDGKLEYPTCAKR

Substance	effect of a mutation on the interaction
Serine-aspartate repeat-containing protein E (Staphylococcus aureus (strain Mu50 / ATCC 700699)), Q932F7 Q419A	decreasing interaction
Serine-aspartate repeat-containing protein E (Staphylococcus aureus (strain Mu50 / ATCC 700699)), Q932F7 D334A	decreasing interaction
Serine-aspartate repeat-containing protein E (Staphylococcus aureus (strain Mu50 / ATCC 700699)), Q932F7 D588A	disrupting interaction
Serine-aspartate repeat-containing protein E (Staphylococcus aureus (strain Mu50 / ATCC 700699)), Q932F7 L335A	decreasing interaction
